Earlier results on three substances are cited in publication PMC3079273.

The target in series [1] is nitrate reductase (Arabidopsis thaliana) (UniProt P11035).
Series [2] shares this target. This is another data set of the same source.
For the next series, the target named is Glu1261 (UniProt position 1261, SKAVGEPPLFL). Put plainly: kinetics. Conditions: free oxidized enzyme reacting with free substrate (xanthine).

Read-outs that look alike come from different tables or passages of the source.

Sequence of nitrate reductase (Arabidopsis thaliana) (P11035 whole entry): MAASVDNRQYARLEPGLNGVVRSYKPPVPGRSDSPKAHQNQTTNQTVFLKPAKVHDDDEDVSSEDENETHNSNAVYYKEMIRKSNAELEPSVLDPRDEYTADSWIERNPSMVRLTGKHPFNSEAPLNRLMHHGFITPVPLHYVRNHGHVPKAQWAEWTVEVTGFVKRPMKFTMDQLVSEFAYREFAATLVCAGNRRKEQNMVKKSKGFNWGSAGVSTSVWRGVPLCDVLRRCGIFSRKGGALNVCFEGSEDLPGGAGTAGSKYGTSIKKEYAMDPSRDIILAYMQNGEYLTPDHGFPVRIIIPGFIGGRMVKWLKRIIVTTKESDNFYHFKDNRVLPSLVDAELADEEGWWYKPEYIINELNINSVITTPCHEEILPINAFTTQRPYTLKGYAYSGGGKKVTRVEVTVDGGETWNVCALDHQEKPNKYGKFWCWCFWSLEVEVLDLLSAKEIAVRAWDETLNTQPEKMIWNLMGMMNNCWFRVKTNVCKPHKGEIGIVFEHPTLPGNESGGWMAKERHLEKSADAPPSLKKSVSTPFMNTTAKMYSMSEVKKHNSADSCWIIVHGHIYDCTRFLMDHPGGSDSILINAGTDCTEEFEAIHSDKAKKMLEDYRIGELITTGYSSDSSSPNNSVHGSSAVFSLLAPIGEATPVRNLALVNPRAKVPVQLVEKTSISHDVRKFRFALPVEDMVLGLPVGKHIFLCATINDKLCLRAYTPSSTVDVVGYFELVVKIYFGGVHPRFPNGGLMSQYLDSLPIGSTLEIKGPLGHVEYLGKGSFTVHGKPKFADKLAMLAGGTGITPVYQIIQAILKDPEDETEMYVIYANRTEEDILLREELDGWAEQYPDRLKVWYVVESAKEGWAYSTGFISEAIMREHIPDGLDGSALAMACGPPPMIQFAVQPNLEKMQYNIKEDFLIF
Sequence of 14-3-3 omega (Q01525 whole entry): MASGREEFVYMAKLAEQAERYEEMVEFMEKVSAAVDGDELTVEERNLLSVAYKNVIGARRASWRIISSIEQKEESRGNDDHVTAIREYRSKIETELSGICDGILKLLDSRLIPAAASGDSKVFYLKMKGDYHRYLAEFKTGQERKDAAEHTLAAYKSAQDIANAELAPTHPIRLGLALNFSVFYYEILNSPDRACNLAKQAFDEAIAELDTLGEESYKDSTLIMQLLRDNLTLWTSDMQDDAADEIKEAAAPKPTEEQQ
Sequence of 14-3-3 lambda (P48349 whole entry): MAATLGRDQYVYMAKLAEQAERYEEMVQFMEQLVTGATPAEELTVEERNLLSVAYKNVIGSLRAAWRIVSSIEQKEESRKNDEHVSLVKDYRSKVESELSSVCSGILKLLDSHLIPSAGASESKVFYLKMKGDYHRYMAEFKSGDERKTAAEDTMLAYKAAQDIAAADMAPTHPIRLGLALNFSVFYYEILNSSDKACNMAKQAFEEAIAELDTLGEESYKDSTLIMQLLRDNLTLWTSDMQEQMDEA

A word on the Ki: it is the dissociation constant of the complex between target and ligand, obtained from inhibition or displacement. Turning to 14-3-3 lambda (from UniProt P48349), the inhibition constant Ki in series [1] is 80 nM.

As to 14-3-3 omega (from UniProt Q01525), the Ki in series [2] was 60 nM.

Usually pKa stands for the pH at which an ionisable group is half protonated. As for “Xanthine oxidoreductase (xanthine oxidase / xanthine dehydrogenase) (Bos taurus)”, the pKa in the series with Glu1261 is 6.6.
